Data reported in patent US20240294650A1.

How the values were obtained:
[1] = target: endogenous murine MerTK on bone marrow-derived macrophages (mouse) (UniProt Q60805); test: FACS, mouse BMDM, WT minus MerTK KO
[2] = target: mouse MerTK overexpressed on CHO cells (mouse) (UniProt Q60805); test: FACS, CHO-muMerTK OE cells, PE-conjugated control
mouse MerTK overexpressed on CHO cells (mouse), sequence (Q60805 19-994): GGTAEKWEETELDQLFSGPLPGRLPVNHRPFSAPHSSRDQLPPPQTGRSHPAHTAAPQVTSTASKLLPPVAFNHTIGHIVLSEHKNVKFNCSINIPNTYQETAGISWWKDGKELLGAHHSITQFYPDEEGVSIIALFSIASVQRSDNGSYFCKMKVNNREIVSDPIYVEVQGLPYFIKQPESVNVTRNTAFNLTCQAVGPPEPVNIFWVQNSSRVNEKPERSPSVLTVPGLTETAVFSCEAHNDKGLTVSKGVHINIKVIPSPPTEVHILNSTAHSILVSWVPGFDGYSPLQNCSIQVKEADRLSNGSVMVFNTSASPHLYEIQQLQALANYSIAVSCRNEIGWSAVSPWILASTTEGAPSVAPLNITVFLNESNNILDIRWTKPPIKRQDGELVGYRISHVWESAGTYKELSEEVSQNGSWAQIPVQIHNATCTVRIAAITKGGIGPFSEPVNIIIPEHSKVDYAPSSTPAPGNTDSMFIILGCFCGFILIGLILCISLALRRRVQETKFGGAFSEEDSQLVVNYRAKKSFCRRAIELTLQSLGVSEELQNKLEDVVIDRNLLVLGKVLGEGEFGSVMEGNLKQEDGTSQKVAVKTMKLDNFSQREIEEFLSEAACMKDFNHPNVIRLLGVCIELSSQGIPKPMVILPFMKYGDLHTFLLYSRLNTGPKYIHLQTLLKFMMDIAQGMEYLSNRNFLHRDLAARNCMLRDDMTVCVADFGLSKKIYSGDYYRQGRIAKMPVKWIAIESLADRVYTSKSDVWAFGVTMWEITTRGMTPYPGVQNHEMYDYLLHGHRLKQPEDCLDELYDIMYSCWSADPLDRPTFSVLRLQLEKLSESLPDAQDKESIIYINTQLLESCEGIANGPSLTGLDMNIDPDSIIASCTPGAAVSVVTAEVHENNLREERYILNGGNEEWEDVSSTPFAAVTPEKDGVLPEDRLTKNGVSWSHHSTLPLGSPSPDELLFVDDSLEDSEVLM

endogenous murine MerTK on bone marrow-derived macrophages (mouse), sequence (Q60805 19-994): as above

rat anti-mouse MerTK monoclonal antibody DS5MMER
MFI [1]: 2800 MFI | MFI [2]: 3500 MFI
